In publication PMC5777261 (The Journal of Biological Chemistry, 2017):
Blank lines part the entries; values can stand above or below the substance they belong to.

What was measured:
Assay in all cases: radioligand binding; HEK293 cells expressing ACKR3-YFP or mutants, pretreated 5 min at 37 °C with 100 μM phenylarsine oxide; 50 pM 125I-CXCL12 tracer in 50 mM HEPES pH 7.4, 5 mM MgCl2, 1 mM CaCl2, 0.2% BSA, with or without unlabeled CXCL12 or CXCL11, 30 min at 37 °C; bound label counted in a γ counter; IC50 taken as proxy for ligand affinity
[1] = molecular target: ACKR3-YFP (wildtype ACKR3 fused C-terminally to YFP) (UniProt P25106)
ACKR3-YFP (wildtype ACKR3 fused C-terminally to YFP), sequence (P25106 whole entry, the tested form may be a part): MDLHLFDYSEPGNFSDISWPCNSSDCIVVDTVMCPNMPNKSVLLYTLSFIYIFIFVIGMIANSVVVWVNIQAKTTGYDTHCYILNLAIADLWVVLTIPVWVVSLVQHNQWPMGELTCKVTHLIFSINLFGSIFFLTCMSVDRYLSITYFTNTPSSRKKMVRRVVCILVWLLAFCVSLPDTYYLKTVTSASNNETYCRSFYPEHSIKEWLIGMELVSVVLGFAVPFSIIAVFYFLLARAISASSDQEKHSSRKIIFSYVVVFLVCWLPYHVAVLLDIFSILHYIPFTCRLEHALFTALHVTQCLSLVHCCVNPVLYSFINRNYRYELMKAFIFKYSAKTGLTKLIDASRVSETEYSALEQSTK

ACKR3 N127D-YFP = ACKR3 N127D-YFP (UniProt P25106)
ACKR3 N127D-YFP, sequence (P25106 whole entry N127D): as the sequence (P25106 whole entry, the tested form may be a part) above, with N127D counted along it

ACKR3 N127S-YFP = ACKR3 N127S-YFP (UniProt P25106)
ACKR3 N127S-YFP, sequence (P25106 whole entry N127S): as the sequence (P25106 whole entry, the tested form may be a part) above, with N127S counted along it

ACKR3 D141N-YFP = ACKR3 D141N-YFP (UniProt P25106)
ACKR3 D141N-YFP, sequence (P25106 whole entry D141N): as the sequence (P25106 whole entry, the tested form may be a part) above, with D141N counted along it

ACKR3 Y143A-YFP = ACKR3 Y143A-YFP (UniProt P25106)
ACKR3 Y143A-YFP, sequence (P25106 whole entry Y143A): as the sequence (P25106 whole entry, the tested form may be a part) above, with Y143A counted along it

ACKR3 R142A-YFP = ACKR3 R142A-YFP (UniProt P25106)
ACKR3 R142A-YFP, sequence (P25106 whole entry R142A): as the sequence (P25106 whole entry, the tested form may be a part) above, with R142A counted along it

ACKR3 D90N-YFP = ACKR3 D90N-YFP (UniProt P25106)
ACKR3 D90N-YFP, sequence (P25106 whole entry D90N): as the sequence (P25106 whole entry, the tested form may be a part) above, with D90N counted along it

ACKR3 N127K-YFP = ACKR3 N127K-YFP (UniProt P25106)
ACKR3 N127K-YFP, sequence (P25106 whole entry N127K): as the sequence (P25106 whole entry, the tested form may be a part) above, with N127K counted along it

ACKR3 Y315A-YFP = ACKR3 Y315A-YFP (UniProt P25106)
ACKR3 Y315A-YFP, sequence (P25106 whole entry Y315A): as the sequence (P25106 whole entry, the tested form may be a part) above, with Y315A counted along it

^125I-CXCL12 radiolabel tracer, sequence (P48061 22-93): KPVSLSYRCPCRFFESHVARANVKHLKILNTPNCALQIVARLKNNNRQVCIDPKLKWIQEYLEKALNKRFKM
CXCL12 (unlabeled recombinant chemokine), sequence (P48061 22-93): as above

IC50 [1]: 5.9 nM
Log IC50 [1]: -8.2
IC50 (ACKR3 N127D-YFP): 10.9 nM
Log IC50 (ACKR3 N127D-YFP): -8.2
IC50 (ACKR3 N127S-YFP): 1.7 nM
Log IC50 (ACKR3 N127S-YFP): -8.8
Log IC50 (ACKR3 D141N-YFP): -9.1
IC50 (ACKR3 Y143A-YFP): 3 nM
Log IC50 (ACKR3 Y143A-YFP): -8.5
IC50 (ACKR3 R142A-YFP): 45.1 nM
Log IC50 (ACKR3 R142A-YFP): -7.4
IC50 (ACKR3 D90N-YFP): 12.1 nM
Log IC50 (ACKR3 D90N-YFP): -7.9
IC50 (ACKR3 N127K-YFP): 9.9 nM
Log IC50 (ACKR3 N127K-YFP): -8.1
IC50 (ACKR3 Y315A-YFP): 24.7 nM
Log IC50 (ACKR3 Y315A-YFP): -7.7
Substance: CXCL12 (unlabeled recombinant chemokine) (from UniProt P48061 22-93) (ligand)

125I-CXCL12 tracer binding, % of ACKR3 (the pair that is blocked) [1]: 100%
125I-CXCL12 tracer binding, % of ACKR3 (the pair that is blocked) (ACKR3 N127D-YFP): 70%
125I-CXCL12 tracer binding, % of ACKR3 (the pair that is blocked) (ACKR3 N127S-YFP): 87%
125I-CXCL12 tracer binding, % of ACKR3 (the pair that is blocked) (ACKR3 D141N-YFP): 64%
125I-CXCL12 tracer binding, % of ACKR3 (the pair that is blocked) (ACKR3 Y143A-YFP): 93%
125I-CXCL12 tracer binding, % of ACKR3 (the pair that is blocked) (ACKR3 R142A-YFP): 66%
125I-CXCL12 tracer binding, % of ACKR3 (the pair that is blocked) (ACKR3 D90N-YFP): 92%
125I-CXCL12 tracer binding, % of ACKR3 (the pair that is blocked) (ACKR3 N127K-YFP): 83%
125I-CXCL12 tracer binding, % of ACKR3 (the pair that is blocked) (ACKR3 Y315A-YFP): 69%
Substance: ^125I-CXCL12 radiolabel tracer (from UniProt P48061 22-93) (ligand)
